From patent publication JP2018127443A

Molecular target: T1, 変性rFXIII-A (human) (UniProt P00488)
T1 sequence: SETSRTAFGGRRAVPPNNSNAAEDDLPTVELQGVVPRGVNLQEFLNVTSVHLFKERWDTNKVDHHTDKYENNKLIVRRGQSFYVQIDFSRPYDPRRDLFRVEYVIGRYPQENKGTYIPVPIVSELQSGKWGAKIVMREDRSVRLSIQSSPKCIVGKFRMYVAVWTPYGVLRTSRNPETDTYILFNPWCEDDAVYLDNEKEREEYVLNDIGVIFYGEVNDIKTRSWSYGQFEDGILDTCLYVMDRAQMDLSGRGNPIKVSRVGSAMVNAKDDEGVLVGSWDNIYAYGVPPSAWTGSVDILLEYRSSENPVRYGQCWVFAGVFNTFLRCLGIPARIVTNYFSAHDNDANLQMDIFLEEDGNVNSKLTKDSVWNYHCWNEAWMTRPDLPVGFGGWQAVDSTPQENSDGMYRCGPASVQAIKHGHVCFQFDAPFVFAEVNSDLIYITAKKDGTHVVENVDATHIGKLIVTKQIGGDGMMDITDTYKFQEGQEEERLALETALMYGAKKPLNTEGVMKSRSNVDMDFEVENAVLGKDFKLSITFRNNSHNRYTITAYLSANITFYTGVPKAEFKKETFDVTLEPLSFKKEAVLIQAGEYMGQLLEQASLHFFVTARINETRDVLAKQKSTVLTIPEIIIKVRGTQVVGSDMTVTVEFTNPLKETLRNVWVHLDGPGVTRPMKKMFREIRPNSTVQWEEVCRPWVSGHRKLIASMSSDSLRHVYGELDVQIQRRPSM
Assay: solid-phase ELISA: denatured vs native rFXIII-A coated

B1: ヒト抗FXIII-Aモノクローナル抗体 A75K (antibody, V domains shown)
VH: QVQLVESGGGVVQPGRSLSLSCAASGFNFISYGMHWVRQSPGKGLEWVAVISYDGSKKYYADFVKGRFTISRDNSKNTLFLQMNSLRGDDTAVFYCAKDRGFYGSGSSDYYYVMDVWGQGTTVTVSS
VL: DIQMTQSPSSLSASVGDRVTITCRASQGITNYLAWFQHKPGKAPKSLIYAASTLHRGVSSKFSGSGSGTDFTLTISNLQPEDFATYYCQQYKTYPITFGQGTRLDIK
Question: Which fold change of binding, denatured against native rFXIII-A does the source give for B1 here?
Answer: 2 fold
